According to PMC3933668, “The phzA2-G2 Transcript Exhibits Direct RsmA-Mediated Activation in Pseudomonas aeruginosa M18”:

How the values were obtained:
RsmA [1] = biological target: T1, RsmA (Pseudomonas aeruginosa M18, UniProt O69078 1-61); experiment: SPR; biotin-RNA on SA chip; 200 mM NaCl, 20 mM Tris-HCl pH 8.0, 1 mM EDTA, 1 mM DTT; 25 C; EMSA: 200 mM KCl, 100 mM HEPES pH 7.3, 10 mM MgCl2, 2 ug tRNA, 5% glycerol, 10 mM DTT, room temp 30 min, 1 nM RNA; SPR: 200 mM NaCl, 20 mM Tris-HCl pH 8.0, 1 mM EDTA, 1 mM DTT, 25 C; settings: protein: recombinant; tags: C-terminal His tag; chain copies: 2; label: 3' biotin
T1 sequence (O69078 whole entry): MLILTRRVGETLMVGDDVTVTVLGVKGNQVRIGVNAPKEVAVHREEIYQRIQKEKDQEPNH

RsmA [2] = biological target: T1, RsmA; experiment: EMSA; RsmA 0-400 nM; EMSA: 200 mM KCl, 100 mM HEPES pH 7.3, 10 mM MgCl2, 2 ug tRNA, 5% glycerol, 10 mM DTT, room temp 30 min, 1 nM RNA; SPR: 200 mM NaCl, 20 mM Tris-HCl pH 8.0, 1 mM EDTA, 1 mM DTT, 25 C; settings: protein: recombinant; tags: C-terminal His tag; chain copies: 2; label: 3' biotin

| Binder | Kd (RsmA [1]) | binding result (RsmA [2]) |
| --- | --- | --- |
| UCUUCUUUCCGGUAUGGAUGCCAGUCGAUUC (ssRNA) [phz2-S3] | 54.5 nM |  |
| UCUUCUUUCCGGUAUUUCUGCCAGUCGAUUC (ssRNA) [phz2-S3M] |  | no binding |
| GGCAAUUCGGCAUUAGUUGAAACUUUGGAGACGCUCCGAA (ssRNA) [phz2-S1] |  | no binding |
| GGGCAACUUUUGCCCGGAAAAAGCUUCACGGCAAUUUCUC (ssRNA) [phz2-S2] |  | no binding |
